Assay results as given in the supplement of paper PMC9112550, “Optimization of the antimicrobial peptide Bac7 by deep mutational scanning” (BMC Biology, 2022).

Test system: Escherichia coli TOP10
Assay: shrunken log2 fold change of peptide-encoding DNA abundance (4.5 h post-induction vs induction); higher = less antimicrobial activity (less host growth inhibition)
Conditions: time post-induction: 4.5 h; library: site-saturation at positions 5, 18, 19, 20
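Further: peptides expressed intracellularly from a pBAD plasmid library in pooled LB shake-flask culture, induced with 0.3% L-arabinose, DNA abundance read by NGS, three biological replicates, DESeq2 with apeglm shrinkage.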

Sequence | shrunken log2 fold change
RRIRARPPRLPRPRPRPDHNPRP | -0.154
RRIRARPPRLPRPRPRPDHPPRP | 0.297
RRIRARPPRLPRPRPRPDKLPRP | 0.105
RRIRARPPRLPRPRPRPDKRPRP | 0.109
RRIRARPPRLPRPRPRPDKYPRP | 1.5
RRIRARPPRLPRPRPRPDLTPRP | 0.198
RRIRARPPRLPRPRPRPDMRPRP | 0.737
RRIRARPPRLPRPRPRPDNGPRP | -0.19
RRIRARPPRLPRPRPRPDNWPRP | 0.283
RRIRARPPRLPRPRPRPDQNPRP | 0.489
RRIRARPPRLPRPRPRPDSTPRP | -0.0804
RRIRARPPRLPRPRPRPDSWPRP | 0.508
RRIRARPPRLPRPRPRPDTFPRP | 0.158
RRIRARPPRLPRPRPRPDVTPRP | 0.533
RRIRARPPRLPRPRPRPEAMPRP | 0.805
RRIRARPPRLPRPRPRPEARPRP | 1.42
RRIRARPPRLPRPRPRPECDPRP | 1.12
RRIRARPPRLPRPRPRPECLPRP | 0.909
RRIRARPPRLPRPRPRPEDEPRP | 0.182
RRIRARPPRLPRPRPRPEDFPRP | 1.11
RRIRARPPRLPRPRPRPEDRPRP | 0.381
RRIRARPPRLPRPRPRPEFRPRP | 0.327
RRIRARPPRLPRPRPRPEFTPRP | 0.475
RRIRARPPRLPRPRPRPEIHPRP | 0.756
RRIRARPPRLPRPRPRPEKPPRP | 0.64
RRIRARPPRLPRPRPRPELNPRP | 0.746
RRIRARPPRLPRPRPRPENLPRP | 0.0156
RRIRARPPRLPRPRPRPENNPRP | 0.263

Sequence | shrunken log2 fold change
RRIRARPPRLPRPRPRPENRPRP | 0.0495
RRIRARPPRLPRPRPRPEQTPRP | 1.18
RRIRARPPRLPRPRPRPERGPRP | 0.305
RRIRARPPRLPRPRPRPESWPRP | 1.49
RRIRARPPRLPRPRPRPETPPRP | 1.65
RRIRARPPRLPRPRPRPETWPRP | 0.369
RRIRARPPRLPRPRPRPEVGPRP | 1.42
RRIRARPPRLPRPRPRPEWNPRP | 0.76
RRIRARPPRLPRPRPRPFCDPRP | 0.0183
RRIRARPPRLPRPRPRPFCRPRP | 0.211
RRIRARPPRLPRPRPRPFCWPRP | 0.401
RRIRARPPRLPRPRPRPFDAPRP | 0.116
RRIRARPPRLPRPRPRPFEEPRP | 0.424
RRIRARPPRLPRPRPRPFEWPRP | -0.0571
RRIRARPPRLPRPRPRPFHMPRP | -1.05
RRIRARPPRLPRPRPRPFISPRP | 0.112
RRIRARPPRLPRPRPRPFKKPRP | -0.0888
RRIRARPPRLPRPRPRPFMMPRP | -0.105
RRIRARPPRLPRPRPRPFNTPRP | -0.189
RRIRARPPRLPRPRPRPFPMPRP | 0.335
RRIRARPPRLPRPRPRPFPSPRP | 0.131
RRIRARPPRLPRPRPRPFQMPRP | -0.0651
RRIRARPPRLPRPRPRPFQVPRP | 0.0694
RRIRARPPRLPRPRPRPFRWPRP | -0.0369
RRIRARPPRLPRPRPRPFTYPRP | -0.0975
RRIRARPPRLPRPRPRPFVDPRP | 0.302
RRIRARPPRLPRPRPRPFWAPRP | 0.218
